Test results taken from paper PMC5515580.

Molecular target: MAST3-HA (human) (UniProt O60307)
Sequence (O60307 313-1021): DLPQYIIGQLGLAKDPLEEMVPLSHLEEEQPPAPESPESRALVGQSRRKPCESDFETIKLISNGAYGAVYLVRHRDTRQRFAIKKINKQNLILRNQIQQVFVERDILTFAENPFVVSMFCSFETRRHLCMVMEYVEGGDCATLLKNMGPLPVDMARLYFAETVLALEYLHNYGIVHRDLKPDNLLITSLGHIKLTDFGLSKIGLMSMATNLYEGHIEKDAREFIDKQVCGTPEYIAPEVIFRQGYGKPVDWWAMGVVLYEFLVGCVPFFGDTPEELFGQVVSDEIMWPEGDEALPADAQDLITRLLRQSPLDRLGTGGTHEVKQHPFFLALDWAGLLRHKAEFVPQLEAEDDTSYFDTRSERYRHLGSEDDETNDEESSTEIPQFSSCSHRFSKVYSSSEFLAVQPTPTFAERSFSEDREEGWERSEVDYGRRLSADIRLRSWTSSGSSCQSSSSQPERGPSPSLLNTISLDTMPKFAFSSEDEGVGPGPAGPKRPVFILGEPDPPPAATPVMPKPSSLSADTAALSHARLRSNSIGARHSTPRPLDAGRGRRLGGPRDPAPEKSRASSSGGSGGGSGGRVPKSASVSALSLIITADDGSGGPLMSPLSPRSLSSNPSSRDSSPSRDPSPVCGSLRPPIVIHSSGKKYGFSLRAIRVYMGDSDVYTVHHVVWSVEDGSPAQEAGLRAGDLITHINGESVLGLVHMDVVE

| Km of phosphorylation of Ser46 by immunoprecipitated MAST3 (32P incorporation, 10-500 nM substrate, 2 min; Figure 1b) [µM] | Km of phosphorylation of Ser46 by immunoprecipitated MAST3 (32P incorporation, 10-500 nM substrate, 2 min; Figure 1—figure supplement 1) [µM] | Binder |
| --- | --- | --- |
| 0.158 | – | P-S88-ARPP-16 (natural protein, phosphoserine at 88 (by PKA, to a maximal stoichiometry)) MEDKVTSPEKAEEAKLKARYPHLGQKPGGSDFLRKRLQKGQKYFDSGDYNMAKAKMKNKQLPTAAPDKTEVTGDHIPTPQDLPQRKPSLVASKLAG |
| – | 0.138 | 6xHis-S88D-ARPP-16 (natural protein) MEDKVTSPEKAEEAKLKARYPHLGQKPGGSDFLRKRLQKGQKYFDSGDYNMAKAKMKNKQLPTAAPDKTEVTGDHIPTPQDLPQRKPDLVASKLAG |
